In this data set the test system is full-length rat proMMP9(1-708) (SEQ ID NO:11).

The results in this text go back to patent publication US20130166268.

Chain of full-length rat proMMP9(1-708) (SEQ ID NO:11) (chain, as listed by the source): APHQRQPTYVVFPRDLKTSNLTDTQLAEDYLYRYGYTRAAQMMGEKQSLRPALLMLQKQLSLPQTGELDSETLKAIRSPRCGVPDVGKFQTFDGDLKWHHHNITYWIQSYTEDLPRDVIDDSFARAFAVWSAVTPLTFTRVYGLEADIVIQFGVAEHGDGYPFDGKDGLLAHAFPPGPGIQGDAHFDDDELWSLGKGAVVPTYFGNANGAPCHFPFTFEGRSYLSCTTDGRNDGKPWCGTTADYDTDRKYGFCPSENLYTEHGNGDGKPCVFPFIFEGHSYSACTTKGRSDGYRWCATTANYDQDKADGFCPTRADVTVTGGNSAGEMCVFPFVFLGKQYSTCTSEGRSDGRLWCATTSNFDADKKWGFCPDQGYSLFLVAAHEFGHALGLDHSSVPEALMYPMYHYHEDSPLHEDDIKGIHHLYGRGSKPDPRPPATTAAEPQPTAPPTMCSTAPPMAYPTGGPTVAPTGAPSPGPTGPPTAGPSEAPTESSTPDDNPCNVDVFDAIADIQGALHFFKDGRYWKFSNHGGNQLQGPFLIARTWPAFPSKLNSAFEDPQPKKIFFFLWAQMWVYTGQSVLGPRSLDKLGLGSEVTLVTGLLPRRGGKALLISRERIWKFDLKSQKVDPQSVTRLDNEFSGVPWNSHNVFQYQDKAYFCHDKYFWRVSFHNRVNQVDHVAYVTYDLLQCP
Chain of human catalytic MMP3, MMP3(100-265) (SEQ ID NO:8) (chain, as listed by the source): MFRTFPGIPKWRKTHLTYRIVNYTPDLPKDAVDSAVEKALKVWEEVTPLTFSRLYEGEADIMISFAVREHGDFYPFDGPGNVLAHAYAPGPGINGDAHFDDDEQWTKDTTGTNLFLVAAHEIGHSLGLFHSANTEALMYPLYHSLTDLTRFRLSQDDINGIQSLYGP

Turning to “human catalytic MMP3, MMP3(100-265) (SEQ ID NO:8)”, the “conversion of proMMP9 to catalytic MMP9 (Western blot standard)” value is “full-length rat proMMP9(1-708) (SEQ ID NO:11) converted to catalytic rat MMP9 by catalytic MMP3”.
